From doi:10.1101/2025.10.06.680677, “Mechanistic insight into the oligomerisation of Arabidopsis CRY1 and its inhibition by BIC1” (bioRxiv, 2025)
Each block holds one binder with its values, some of them ahead of it.

B3: Arabidopsis thaliana CRY1 PHR domain (residues 1-509) (domain or fragment, UniProt Q43125 1-509, looked up)
chain: MSGSVSGCGSGGCSIVWFRRDLRVEDNPALAAAVRAGPVIALFVWAPEEEGHYHPGRVSRWWLKNSLAQLDSSLRSLGTCLITKRSTDSVASLLDVVKSTGASQIFFNHLYDPLSLVRDHRAKDVLTAQGIAVRSFNADLLYEPWEVTDELGRPFSMFAAFWERCLSMPYDPESPLLPPKKIISGDVSKCVADPLVFEDDSEKGSNALLARAWSPGWSNGDKALTTFINGPLLEYSKNRRKADSATTSFLSPHLHFGEVSVRKVFHLVRIKQVAWANEGNEAGEESVNLFLKSIGLREYSRYISFNHPYSHERPLLGHLKFFPWAVDENYFKAWRQGRTGYPLVDAGMRELWATGWLHDRIRVVVSSFFVKVLQLPWRWGMKYFWDTLLDADLESDALGWQYITGTLPDSREFDRIDNPQFEGYKFDPNGEYVRRWLPELSRLPTDWIHHPWNAPESVLQAAGIELGSNYPLPIVGLDEAKARLHEALSQMWQLEAASRAAIENGSEEG
notes: Cryptochrome 1 (CRY1), Arabidopsis thaliana, photolyase homology region (PHR) domain, residues 1-509; Cloned in pACYCDuet-1; Monomer about 59 kDa by LILBID-MS; also called wild-type CRY1; source: E. coli BL21 Star (DE3), purified (Ni-NTA, SEC on Superdex 200)
B4: Arabidopsis thaliana CRY1 PHR domain (residues 1-509) L407F mutant (domain or fragment, UniProt Q43125 1-509, looked up)
chain: MSGSVSGCGSGGCSIVWFRRDLRVEDNPALAAAVRAGPVIALFVWAPEEEGHYHPGRVSRWWLKNSLAQLDSSLRSLGTCLITKRSTDSVASLLDVVKSTGASQIFFNHLYDPLSLVRDHRAKDVLTAQGIAVRSFNADLLYEPWEVTDELGRPFSMFAAFWERCLSMPYDPESPLLPPKKIISGDVSKCVADPLVFEDDSEKGSNALLARAWSPGWSNGDKALTTFINGPLLEYSKNRRKADSATTSFLSPHLHFGEVSVRKVFHLVRIKQVAWANEGNEAGEESVNLFLKSIGLREYSRYISFNHPYSHERPLLGHLKFFPWAVDENYFKAWRQGRTGYPLVDAGMRELWATGWLHDRIRVVVSSFFVKVLQLPWRWGMKYFWDTLLDADLESDALGWQYITGTFPDSREFDRIDNPQFEGYKFDPNGEYVRRWLPELSRLPTDWIHHPWNAPESVLQAAGIELGSNYPLPIVGLDEAKARLHEALSQMWQLEAASRAAIENGSEEG
notes: Cryptochrome 1 (CRY1), Arabidopsis thaliana, PHR domain, residues 1-509, with L407F; Cloned in pACYCDuet-1; also called CRY1^L407F; constitutively active CRY1; source: E. coli BL21 Star (DE3), purified (Ni-NTA, SEC on Superdex 200)

Tests used:
[1] = target: B3; assay: native MS; quantitative LILBID-MS (qLILBID-MS), label-free, under blue light; KD from dissociation plots; details: both partners purified
[2] = target: B3; assay: native MS; quantitative LILBID-MS (qLILBID-MS), label-free, in the dark; KD from dissociation plots; details: both partners purified
[3] = target: B4; assay: as above; details: both partners purified
[4] = target: the molecule itself; assay: not stated; wild-type BIC1, disulfide bond-mediated dimerization (Extended Data Fig. 5a, b); method not given
[5] = target: the molecule itself; assay: native MS; time-resolved nESI-MS, CRY1 15 µM, blue light, room temperature, with 100 µM ATP; reversible two-step model (monomer to dimer, dimer to tetramer)
[6] = target: the molecule itself; assay: native MS; LILBID-MS, under blue light (455 nm LED, 100 µmol m-2 s-1), 20 °C, 200 mM ammonium acetate, 10 mM DTT, pH 7.4; BIC1 equimolar, added before illumination or to pre-illuminated tetrameric CRY1
[7] = target: the molecule itself; assay: native MS; time-resolved nESI-MS, 10 scans per second, CRY1 15 µM, blue light, room temperature, no ATP; reversible two-step model (monomer to dimer, dimer to tetramer) fitted with DynaFit
[8] = target: the molecule itself; assay: SEC; analytical SEC, Superdex 200 10/300 GL, 10 °C, 30 µM protein, ß-mercaptoethanol, kept in darkness (red safe light)

- Kd [1]: 130 ± 90 nM
- Kd [2]: ~1200 nM
- Kd [3]: 100 ± 30 nM
B1: Blue-light Inhibitor of Cryptochromes 1 (BIC1) triple mutant C99A, C105A, C136A (natural protein, Arabidopsis thaliana, UniProt Q9LXJ1 1-140, looked up)
chain: MMNIDDTTSPMAHPIGPSQPPSDQTKQDPPSLPQEAASSVSADKKDLALLEEKPKQSQEEDRVDTGRERLKKHRREIAGRVWIPEIWGQEELLKDWIDASTFDTALVPAGISSARTALVEEARRAASASGGLHNRALILR
notes: BIC1, Arabidopsis thaliana, synthetic gene with three cysteine-to-alanine substitutions; Cloned in pET28a(+) (BioCat GmbH); About 20 kDa by LILBID-MS; also called BIC1^3CA; source: E. coli BL21 Star (DE3), purified (Ni-NTA, SEC on Superdex 75)

B2: Arabidopsis thaliana wild-type BIC1 protein (natural protein, UniProt Q9LXJ1 1-140, looked up)
chain: MMNIDDTTSPMAHPIGPSQPPSDQTKQDPPSLPQEAASSVSADKKDLALLEEKPKQSQEEDRVDTGRERLKKHRREIAGRVWIPEIWGQEELLKDWIDCSTFDTCLVPAGISSARTALVEEARRAASASGGLHNRCLILR
notes: BIC1, Arabidopsis thaliana, wild type with its cysteines; The construct and its host are not described; the methods say in general that recombinant proteins carried an N-terminal His6-tag; The dimer is held by disulfide bonds
- stoichiometry N [4]: 2

Binder: B3
- fold change of the rate of tetramer formation with 100 µM ATP against no ATP [5]: ~4 fold
- fold slowing of dimer dissociation with 100 µM ATP against no ATP [5]: > 10 fold
- fold slowing of tetramer dissociation with 100 µM ATP against no ATP [5]: ~2 fold
- stoichiometry N [6]: 4
- half-life of tetramer formation (single-exponential fit) [7]: ~18 s

Binder: B4
- stoichiometry N [8]: 4
